# Laboratory results from US20260266848A1, “COMPOSITIONS AND METHODS FOR DIAGNOSING AND TREATING DYSTONIA” (Duke University, priority 2023, published 2026).
# Legend:
# DYT-TOR1A MEF EVs = experiment: Quantitative LC-MS/MS proteomics of EVs from drug-treated DYT-TOR1A MEF cultures (ritonavir, salubrinal); type: cell-based, mouse; set-up: key to RTV Corrective Direction / RTV Corrective Direction, Grwd1 / RTV Corrective Direction, Srrm2 / RTV Corrective Direction, Rbm17 / RTV Corrective Direction, Dcaf8 / RTV Corrective Direction, Edil3 / RTV Corrective Direction, Timp3 / RTV Corrective Direction, Heatr3 / RTV Corrective Direction, Brd4 / RTV Corrective Direction, P3h4 / RTV Corrective Direction, Pacsin3 / RTV Corrective Direction, Naa50 / RTV Corrective Direction, Lpar6 / RTV Corrective Direction, Ndrg1 / RTV Corrective Direction, Kntc1 / RTV Corrective Direction, Cdk11b / RTV Corrective Direction, Sumo1 / RTV Corrective Direction, Lsm4 / RTV Corrective Direction, Hmga2 / RTV Corrective Direction, Cstf1 / RTV Corrective Direction, Tes / RTV Corrective Direction, Sbno1 / RTV Corrective Direction, Unc119b / RTV Corrective Direction, Cfdp1 / RTV Corrective Direction, Sec61b: YES = protein abundance effect opposite to DYT/WT; conditions: EV protein abundance; for RTV Corrective Direction: DYT + RTV (ritonavir) vs DYT, direction compared with DYT/WT; for DYT + RTV/DYT Cohen's d: ritonavir (RTV)-treated DYT vs DYT
# WT MEF EVs = experiment: Quantitative LC-MS/MS proteomics of EVs from ISRIB-treated WT MEF cultures; type: cell-based, mouse; set-up: key to ISRIB and DYT Parallel Direction / ISRIB and DYT Parallel Direction, Ctdsp1 / ISRIB and DYT Parallel Direction, Pcdh19 / ISRIB and DYT Parallel Direction, Tspan7 / ISRIB and DYT Parallel Direction, Myo1e / ISRIB and DYT Parallel Direction, Plpp3 / ISRIB and DYT Parallel Direction, Sh3bp4 / ISRIB and DYT Parallel Direction, Dnajc7 / ISRIB and DYT Parallel Direction, Drg1 / ISRIB and DYT Parallel Direction, Maea: YES = protein abundance effect similar to DYT/WT; conditions: EV protein abundance; for WT + ISRIB/WT Cohen's d: ISRIB-treated WT vs WT; for ISRIB and DYT Parallel Direction: WT + ISRIB vs WT, direction compared with DYT/WT
Molecule,RTV Corrective Direction (DYT-TOR1A MEF EVs),DYT + RTV/DYT Cohen's d (DYT-TOR1A MEF EVs),WT + ISRIB/WT Cohen's d (WT MEF EVs),ISRIB and DYT Parallel Direction (WT MEF EVs)
"Spr (protein, UniProt P35270 1-261, looked up) Sepiapterin reductase: MEGGLGRAVCLLTGASRGFGRTLAPLLASLLSPGSVLVLSARNDEALRQLEAELGAERSGLRVVRVPADLGAEAGLQQLLGALRELPRPKGLQRLLLINNAGSLGDVSKGFVDLSDSTQVNNYWALNLTSMLCLTSSVLKAFPDSPGLNRTVVNISSLCALQPFKGWALYCAGKAARDMLFQVLALEEPNVRVLNYAPGPLDTDMQQLARETSVDPDMRKGLQELKAKGKLVDCKVSAQKLLSLLEKDEFKSGAHVDFYDK",YES,3.69,−3.64,YES
"Hmgcs1 (protein, UniProt Q8JZK9 1-520, looked up) Hydroxymethylglutaryl-CoA …: MPGSLPLNAEACWPKDVGIVALEIYFPSQYVDQAELEKYDGVDAGKYTIGLGQARMGFCTDREDINSLCLTVVQKLMERHSLSYDCIGRLEVGTETIIDKSKSVKSNLMQLFEESGNTDIEGIDTTNACYGGTAAVFNAVNWVESSSWDGRYALVVAGDIAIYATGNARPTGGVGAVALLIGPNAPLIFDRGLRGTHMQHAYDFYKPDMLSEYPVVDGKLSIQCYLSALDRCYSVYRKKIRAQWQKEGKDKDFTLNDFGFMIFHSPYCKLVQKSLARMFLNDFLNDQNRDKNSIYSGLEAFGDVKLEDTYFDRDVEKAFMKASSELFNQKTKASLLVSNQNGNMYTSSVYGSLASVLAQYSPQQLAGKRVGVFSYGSGLAATLYSLKVTQDATPGSALDKITASLCDLKSRLDSRTCVAPDVFAENMKLREDTHHLANYIPQCSIDSLFEGTWYLVRVDEKHRRTYARRPFTNDHSLDEGMGLVHSNTATEHIPSPAKKVPRLPATSAESESAVISNGEH",YES,7.26,−0.06,YES
"Tars (protein, UniProt Q9D0R2 1-722, looked up) Threonine--tRNA ligase 1, …: MSQEKASSPSGKMDGEKPVDASEEKRKEGGKKKSKDGGGDGGRAELNPWPEYINTRLDMYNKLKAEHDSILAEKAAKDSKPIKVTLPDGKQVDAESWKTTPYQIACGISQGLADNTVVAKVNKVVWDLDRPLETDCTLELLKFEDEEAQAVYWHSSAHIMGEAMERVYGGCLCYGPPIENGFYYDMYLEEGGVSSNDFSSLETLCKKIIKEKQTFERLEVKKETLLEMFKYNKFKCRILNEKVNTPTTTVYRCGPLIDLCRGPHVRHTGKIKTLKIHKNSSTYWEGKADMETLQRIYGISFPDPKLLKEWEKFQEEAKNRDHRKIGRDQELYFFHELSPGSCFFLPKGAYIYNTLMEFIRSEYRKRGFQEVVTPNIFNSRLWMTSGHWQHYSENMFSFEVEKEQFALKPMNCPGHCLMFDHRPRSWRELPLRLADFGVLHRNELSGALTGLTRVRRFQQDDAHIFCAMEQIEDEIKGCLDFLRTVYSVFGFSFKLNLSTRPEKFLGDIEIWNQAEKQLENSLNEFGEKWELNPGDGAFYGPKIDIQIKDAIGRYHQCATIQLDFQLPIRFNLTYVSHDGDDKKRPVIVHRAILGSVERMIAILTENYGGKWPFWLSPRQVMVVPVGPTCDEYAQKVRQQFHDAKFMADTDLDPGCTLNKKIRNAQLAQYNFILVVGEKEKASGTVNIRTRDNKVHGERTVEETVRRLQQLKQTRSKQAEEEF",YES,6.28,−1.16,YES
"Apex1 (protein, UniProt P28352 2-317, looked up) DNA repair nuclease/redox …: PKRGKKAAADDGEEPKSEPETKKSKGAAKKTEKEAAGEGPVLYEDPPDQKTSPSGKSATLKICSWNVDGLRAWIKKKGLDWVKEEAPDILCLQETKCSENKLPAELQELPGLTHQYWSAPSDKEGYSGVGLLSRQCPLKVSYGIGEEEHDQEGRVIVAEFESFVLVTAYVPNAGRGLVRLEYRQRWDEAFRKFLKDLASRKPLVLCGDLNVAHEEIDLRNPKGNKKNAGFTPQERQGFGELLQAVPLADSFRHLYPNTAYAYTFWTYMMNARSKNVGWRLDYFLLSHSLLPALCDSKIRSKALGSDHCPITLYLAL",YES,8.06,−0.67,YES
"Ephx1 (protein, UniProt Q9D379 1-455, looked up) Epoxide hydrolase 1: MWLELILASVLGFVIYWFVSRDKEETLPLEDGWWGPGSKPSAKEDESIRPFKVETSDEEIKDLHQRIDRFRASPPLEGSRFHYGFNSSYLKKVVSFWRNEFDWRKQVEILNQYPHFKTKIEGLDIHFIHVKPPQLPSGRTPKPLLMVHGWPGSFYEFYKIIPLLTDPKTHGLSDEHVFEVICPSIPGYGFSEASSKKGLNSVATARIFYKLMSRLGFQKFYIQGGDWGSLICTNIAQMVPNHVKGLHLNMSFISRNIYSLTPLLGQRFGRFLGYTEKDLELLYPFKEKVFYNIMRESGYLHIQATKPDTVGCALNDSPVGLAAYILEKFSTWTKSEYRELEDGGLERKFSLEDLLTNIMIYWTTGTIVSSQRFYKENLGQGVMVHRHEGMKVFVPTGYSAFPSEILHAPEKWVKVKYPKLISYSYMERGGHFAAFEEPKLLAQDIRKFVSLAELQ",YES,1.48,−0.32,YES
"Gmpr2 (protein, UniProt Q99L27 1-348, looked up) GMP reductase 2: MPHIDNDVKLDFKDVLLRPKRSTLKSRSEVELTRSFSFRNSKQMYSGIPVIAANMDTVGTFEMARVLCKFSLFTAIHKHYSIHQWQEFASQNPDCLECLAASSGSGSADFEQLEQILEAIPQVKYICLDVANGYSEHFVEFVKDVRKRFPQHTIMAGNVVTGEMVEELILSGADIIKVGIGPGSVCTTRKKTGVGYPQLSAVMECADAAHGLKGHIISDGGCSCPGDVAKAFGAGADFVMLGGMLAGHSESGGELIERDGKKYKLFYGMSSEMAMKKYSGGVAEYRASEGKIVEVPFKGDVEHTIRDILGGIRSTCTYVGAAKLKELSRRTTFIRVTQQVNPIFSNSQ",YES,5.10,−2.98,YES
"Lipg (protein, UniProt Q9WVG5 21-500, looked up) Endothelial lipase: SITTLRPQGSLRDEHHKPTGVPATARPSVAFNIRTSKDPEQEGCNLSLGDSKLLENCGFNMTAKTFFIIHGWTMSGMFESWLHKLVSALQMREKDANVVVVDWLPLAHQLYTDAVNNTRVVGQRVAGMLDWLQEKEEFSLGNVHLIGYSLGAHVAGYAGNFVKGTVGRITGLDPAGPMFEGVDINRRLSPDDADFVDVLHTYTLSFGLSIGIRMPVGHIDIYPNGGDFQPGCGFNDVIGSFAYGTISEMVKCEHERAVHLFVDSLVNQDKPSFAFQCTDSSRFKRGICLSCRKNRCNNIGYNAKKMRKKRNSKMYLKTRAGMPFKVYHYQLKVHMFSYNNSGDTQPTLYITLYGSNADSQNLPLEIVEKIELNATNTFLVYTEEDLGDLLKMRLTWEGVAHSWYNLWNEFRNYLSQPSNPSRELYIRRIRVKSGETQRKVTFCTQDPTKSSISPGQELWFHKCQDGWKMKNKTSPFVNLA",YES,2.88,−2.47,YES
"Eif2b1 (protein, UniProt Q99LC8 1-305, looked up) Translation initiation factor …: MEDGELIEYFKSQMKGDPKMASAVAAIQTLLEFLKRDKGETLQGLRANLTYAIKTLCGVDSSVAVSSGGELFLRFISLTSLEYSDYSKCKKIMIERGELFLRRISLSRNKIANLCHTFIKDGARILTHAYSRVVLRVLEEAVAAKKRFSVYITESQPDLSGKKMAKALSHLNVPVTVVLDAAVGYIMEKADLVIVGAEGVVENGGIINKIGTNQMAVCAKAQNKPFYVVAESFKFVRLFPLNQEDVPDKFKYKADTLKSVQTGQDLKEEHPWVDYTSPSLITLLFTDLGVLTPSAVSDELIKLYL",YES,5.03,−0.70,YES
"Shmt2 (protein, UniProt Q9CZN7 30-504, looked up) Serine …: KVAQTQAGEAAGGWTGQESLSDSDPEMWELLQREKDRQCRGLELIASENFCSRAALEALGSCLNNKYSEGYPGKRYYGGAEVVDEIELLCQRRALEAFDLDPAQWGVNVQPYSGSPANLAAYTALLQPHDRIMGLDLPDGGHLTHGYMSDVKRISATSIFFESMPYKLNPQTGLIDYDQLALTARLFRPRLIIAGTSAYARLIDYARMREVCDEVRAHLLADMAHISGLVAAKVIPSPFKYADVVTTTTHKTLRGARSGLIFYRKGVRTVDPKTGKEIPYTFEDRINFAVFPSLQGGPHNHAIAAVAVALKQACTPMFREYSLQVLRNAQAMADALLKRGYSLVSGGTDTHLVLVDLRPKGLDGARAERVLELVSITANKNTCPGDRSAITPGGLRLGAPALTSRQFREDDFRRVVDFIDEGVNIGLEVKRKTAKLQDFKSFLLKDPETSQRLANLRQQVEQFARGFPMPGFDER",YES,8.98,−1.44,YES
